The nature of the data set: label from the status in PepcDB records.

Regarding “GPHQRLEKLDSLLSDYDILSLSNIQQHSVRKRDLQTSTHVETLLTFSALKRHFKLYLTSSTERFSQNFKVVVVDGKNESEYTVKWQDFFTGHVVGEPDSRVLAHIRDDDVIIRINTDGAEYNIEPLWRFVNDTKDKRMLVYKSEDIKNVSRLQSPKVCGYLKVDNEELLPKGLVDREPPEGKT”, the protein production entry was “not failed”.
Then “GQGVSRSGALDLGALRSANRTVGNPSDMACVESVLGGLSFSCHGSAVIAITGAHTPVTITSASGLQWQASNYQPIELETGDRVSLGSPKAGLRSYLAIRGGFDVTPVLGSLSTDTLAQLGPEALATGDRLGFTAPVNGTSVSLNEAPAFELPTTANIVTLDVVMGPRTDWFTENAIQRLSSQLWRVTPQSNRVGIRLAGDTPLERSNHQELPSEGTSVGAIQVPASGQPVLFLADHPLTGGYPVIASVASHHLDLAGQIPVNAQIRFNPLGAFEEMQPSTEASFSTADAKNNS”, with “failed”; and “GQLDLLRSNTGLLYRIKDSQNAGKMKGSDNQEKLVYQIIEDAGNKGIWSRDVRYKSNLPLTEINKILKNLESKKLIKAVKSV”, with “not failed”.
For “GQVDGEDVVSISSADLDETEGNLNMTTVSVRSGMTLSQVISRWLFTDDTIVPIEQVFPPGQSTEEVEESNRTAFISSESSATIAAMNYLNIPVEVEVAEVLTDSAATGIFEPGDKLLSIDGTAISTPGDAQTIVRSKAPGDEITISYERNDAESQATITLREHPDDSSVALLGISMLSVP”, the protein production result is “failed”.
Then “GRRFVMVPGIGGSGPEHWQSHWESLYPNTLRIEPNSWDEPDLADWFAALDRAVAAAPYPPVLVCHSLGCLLFAHWRAASSRAIAAAFLVAVPDPSGPAFPAQAKAFGALPATGFGERPVLAVASENDPYDPEASAIAWAVRQGAWPRRLGPRGHLNEASNIGAWPEGQELLADFLDKIGE”, with “failed”.
Then “GSFQYVPVQLQGGAPWGFTLKGGLEHCEPLTVSKIEDGGKAALSQKMRTGDELVNINGTPLYGSRQEALILIKGSFRILKLIVRRRN”, with “not failed”; and “GSGCPLLENVISKTINPQVSKTEYKELLQEFIDDNATTNAIDELKECFLNQTDETLSNVEVFMQLIYDSSLCDLF”, with “failed”; and “GSHMEKVPGEMEIERRERSEELSEAERKAVQAMWARLYANCEDVGVAILVRFFVNFPSAKQYFSQFKHMEDPLEMERSPQLRKHACRVMGALNTVVENLHDPDKVSSVLALVGKAHALKHKVEPVYFKILSGVILEVVAEEFASDFPPETQRAWAKLRGLIYSHVTAAYKEVGWVQQVPNATTPPATLPSSGP”, with “not failed”.
For the sequence “GSHMPVPSFGEAMAYFAMVKRYLTSFPIDDRVQSHILHLEHDLVHVTRKNHARQAGVRGLGHQS”, the protein production entry is “not failed”.
With “GSIPRVLISADRSSSGKTTISMGLMAALVSRGYKVQPFKVALDYIDPSYHTEITGRFCRNLDGYLMDEHGILDVYTHACETGGGADIAIIEGVRGLFEGFESLSDVGSTAQIAKILKCPVVFVINARSITRSAAALIGGYKNFDPDVEIAGVILNNIGGRRHAQKAKEAIEHYTGVPVLGIIPRDPSMQISMRHLGLMPALEGRRRFGDGGFENRLHGIEEIINKGIDVDRFLGIAESAKPLTALENSIFSPAVNENSQKPKIGVALDEAFNFYYRDNIDLLEIAGAEIVYFSPVNDPGLPEVDGLYIGGGYPELFAAELEANETMRKSIKEASAAGMPIYAECGGLMYLTEKISTGVPGKGTYHDASMPESTYSMVGALPGHTIMGQTRVVSYNIGTLARDCPIGKKGNSFKGHEFHHSEILEIPDDAEFAIALTRGTGIRGDRDGLIVNNTIGSYAHLHGVAYRELAGSLVEAARKFRDS” the entry was “failed”.
Regarding “GSKGSRIELGDVTPHNIKQLKRLNQVIFPVSYNDKFYKDVLEVGELAKLAYFNDIAVGAVCCRVDHSQNQKRLYIMTLGCLAPYRRLGIGTKMLNHVLNICEKDGTFDNIYLHVQISNESAIDFYRKFGFEIIETKKNYYKRIEPADAHVLQKNLKVPSGQNADVQKTDN”, the protein production result is “failed”.
With “GSSGSSGMKQATRKPTTPGDILLYEYLEPLDLKINELAELLHVHRNSVSALINNNRKLTTEMAFRLAKVFDTTVDFWLNLQAAVDLWEVENNMRTQEELGRIETVAEYLARREERAKKVA” the entry was “not failed”; with “GSSGSSGPSSPSIDQVEPYSSTAQVQFDEPEATGGVPILKYKAEWRAVGEEVWHSKWYDAKEASMEGIVTIVGLKPETTYAVRLAALNGKGLGEISAASEFKTQPVREPSAPKLEGSGPSSG”, “not failed”; with “GSSGSSGWVAFDKQVLSFDAYLEEEVLDKSQTNYRIRYYKIYFYPEDDTIQVNEPEVKNSGLLQGTSIRRHRITLPPPDEDQFYTVYHFNVGTEVVFYGRTFKIYDCDAFTRNFLRKIGVKVNPPVQSGPSSG”, “not failed”.
With “GTAYWKNPDQFTAFNTGLHALLREKSYNFFLLGEPRADIYGDNPIGGEASQGMERLPFNTINKENVGISNYGDMYKIINQINQMIAKTTETTILTEATQNYYLGEAYGMRAYLYFHLLRSWGDVVLYLDYTEGQNLDLSNITKGVSPATEVMEQIKKDIQASENAFGSDYSFKLGRHFWSAAATQMLKGEAYLWSGRQMNGGNSDYTIAKNAFENVKKADVGLVTSSFKDIFSFENKKNKEMIFTIHNGKDEYEMWGGYYRMRLIPAQDKMVKIYCDENGNSFVGTPDAQLNGLTQLQVRREFYFKGFRNNDTRWTTSLKAVYKKDAQGVVSYFGPITYKFQGTMLEGGSTRSFLDDFPIYRYADCLLQLAMAKVLLGEDPTEEINAVRERAYGSKYFNEHKAEIAYPNDNDPEFYTDNKWMKPDNAGALEAILKERLREFMFEGKRWYDIRLLGWDYVHQYSSAEQSRLLWPIDAGTLTNNSALKQTPGYE”, the protein production result is “not failed”.
Then “GTPVSDAEEIKVKYGCALSELVSKDDTVNVPSVGGRPSRSLQRQTLSEVIEPRYSELMGLVNQTIDSVQAKLREEGIKHH”, with “failed”.
In the case of “GTQAGVPAWSTIKVPISIAALRANPGNDVLMRQAITVSDNDAARALWDSLGSPREKVGAVLAQGGDPQTQVNDQPGMRTFC”, the protein production entry was “failed”.
Regarding “GVLDDIRFGVRRTLNARIASQAQWYALGAEQLARTRIAQLMDREPNKTTLEGGWNGRVISFPIEQGRMEAKLTDATGCFNLNSVVEANQGEPFRRRELGVRQFTTLLSLVGVSNGPELAENLADWMDSNDVGRAEAEDPGYAQLAQPYRTAGGPLAEVSELRAIRGFTPSVYAALRPYVCALPTTDLSPINVNTLPPERALLLTALTEGRIGRETAARVLSGRPVNGWPDAQAFWGQQALVATPPGDVVRDQIKFRTRFFALDSQIVFADMPVFMTALFETPSASKVILA”, the protein production entry was “failed”.
In the case of “GVSVSPDETMLAFGEDVLSRRVYNIYFKDIESGAMITDVLENTEGRIVWGNDNRHVFYIAKDLQTLLGNRVYRHELGTPQSRDVLVYEEQDDAYYISLGKSLDESQIVLFHESTTTSEVSVLDANDPLSLFKPVLAREEGHEYSVSKLGDSYYVLTNWQATNFRLMKVAIKDAADKSKWQEVVAHNPNARLEDELVLKDYLIIQTRENGLTRIKVMPFNGQKPFELSFDEPAYVLGLDVNA”, the protein production result is given as “failed”.
As to “HALAERDRPLPTHLVLSGRMPPHTGYSPLLGAMDDNQLWQHVCSESLLPLPTDASCSFARHALGKLKADLALNAQLTYRFIRPLPVPLYVLNGQDDPLLELHRLDEWQRYTSTSFHSEYVPGGHFFFNINFQLLYLPLLTALD”, the protein production result is on record as “failed”.
For “HALGAPVLRVEGLSQAGHFRNVSFEVRAGEVLGITGLLGSGVKELVECLFGLEQPDAGSVTIDGEVRRFANPGRAVQGRVALVPEDRRAHGVATDMSVRDNITIASLERYMTRGFVSRARENEAVDGFIRELSIKTPHRDQLVRNLSGGNQQKVALAKWLSCQSRVYVLDEPTVAVDVGAKVEIYTLLNRLAAEGAAILFLSSDLLEIAGFCDRALVVYRGTLNGEFAGETLDSDLLLAAASGARAQRKEA”, the protein production entry is recorded as “failed”.
“HARKSLTVLVVGESARAENFGILGYGRNTTPNLNKENGLVAFTDVYSCGTETAVSVPCMFSNMGRKNYNATKARNQEGLLDVLKHAGIEVAWRDNQSGCKGTCDRVTFQDVSNLTDPLLCNSHECRDEILLQNLQGFIDSLDKDTVLVLHQMGSHGPEYYKRYPKEFEKFTPVCESNALNNCSRDSIVNAYDNTLLYTDHVLSTLIDLLRSNQAKVDTAMVYLSDHGESLGEYNLFLHGTPYVLAPDQQKHVPMLIWLSDTYQKSFAVTPDCLAKQRNAPLSQDNLFHSMLGLLKVDTKVY”: the protein production entry is “failed”.
Consider “HEETECPLRLAVCQHCDLELSILKLKEHEDYCGARTELCGNCGRNVLVKDLKTHPEVCGREG”, for which the protein production entry is on record as “not failed”.
Take “HIQKGIAGEQKACAFLEQQGYKIIEKNLRIGKGEIDLIAVHNNCMCFIEVKYRKHNRYGFPEEFVTQKKLLKIQETAEAYIYTVNWQGRIRFDVVAITGEELPVHL”: the protein production result is listed as “failed”.
On to “HKPWRAEYAKSSRSSCKTCKSVINKENFRLGKLVQSTHFDGIMPMWNHASCILKKTKQIKSVDDVEGIESLRWEDQQKIRKYVESGAGSNTSTSTGTSTSS”, for which the protein production result is reported as “not failed”.
Then “HLDASLQEVAEHAFGDYLGGLVALDPNTGGVLALVSKPGFDPNLFVDGIDPETWKSLNESPERPMVNRALRGIYPPGSTIKPLMALAGLELGLREPDDSIDDPGFFRLPNSQHRFRDWKPGGHGIVDLRRSISQSCDIYYYRLAVDMGIDRMHDYLTQFGLGQKTGIDLQGESSGLLPSRAWKQRRWKQPWYPGETVIAGIGQGYHLTTPLQLATMTAMLANGGKRIQPRLVDAVRDPHTRAWQTQAPVMLGEVAIDPENLAVVRQGMMDVTRPGGTAAASAAGAAYGIAGKTGTAQVVGIKQGARYDATRLAREHRDHALFVAYAPAENPVIAVAVMVENGGSGSGTAAPIARAVFDYYLTGKRPGTMKLETDDAAD”, with “failed”; and “HPNVTFIIGENGTGKSTLLEGIAIALGFNAEGGTKNFRFSTNDSHSSLHEYLRISKSFNTPSDGFFLRAESFYNVASYIDEIDADLEARGNPVIDSYGGISLHEQSHGESFFSLFMNRFSGQGLYILDEPEAALSPMRQLSMLIRMHELAEQGSQFVIATHSPILMAYPESTIYSLTQEG”, with “failed”; and “HRAKIRMEALPEDYERVPGTDMTPEQAYNVSNLDPALQKALDDLSPDFRVAVVLCDVVGMSYDEIADTLGVKMGTVRSRIHRGRSQLRAHLENQATSDEGAQLLLATGR”, with “failed”.
With “HSHSDKHPVTWQPSKDGDRLIGRILLNKRLKDGSVPRDSGAMLGLKVVGGKMTESGRLCAFITKVKKGSLADTVGHLRPGDEVLEWNGRLLQGATFEEVYNIILESKPEPQVELVVSR” the entry was “not failed”; with “HVSDLDWLMSGLVQRVPHTTSAVLLSCDGLVKSVHGLDPDSADHMAALASGLYSLGRSAGIRFGDGGDVRQVVVELDSTLLFVSTAGSGTCLAVLAGREADAAVLGYEMAMLVKSVRPYLMTAPRQ”, “not failed”; with “HYSPFRSQPVDCVLWVKQELVAPNDYNPNNVAPPEKRLLQTSLEADGFTQPVVVIQQRPQAYTIVDGFHRHELACSKAALKKTLKGYLPVTCLTSEAASRDGLMAATIRHNRARGRHQ”, “failed”.
For the sequence “IDTVAPDMRIHGFLNAQEFTLYLDTSGEALFKRGLRQTQGEAPLRENLAAGILALTGWQPGTPLLDPMCGSGTLLLEAAQIACRIAPGSGRQFAFEQLKLFDARSWKKLKQTATERQHERTFQSIYGSDLYGSALAHTRNNLAAAGLAECVTLKQANVLEISAPAETGILVSNPPYGVRIGDHQMLAEFYPRLGDVLKQRFSGWRAFLLTADPLLAKSIRLTPSRRTPLFNGALECRLLEYRLVAGSMRREKQPSSESSTNQPIT”, the protein production result is on record as “failed”.

The record behind these values is a protein production outcome set (Wang et al. 2014).
